Measurements reported in paper PMC3167620.
Changes are numbered by the printed parent chain. Read-outs that look alike come from different tables or passages of the source.

Tests used:
[1] = biological target: T1, G4R1/RHAU E335A (Walker B, ATPase-dead) (human, UniProt Q9H2U1 1-1008, E335A); experiment: EMSA
T1 sequence: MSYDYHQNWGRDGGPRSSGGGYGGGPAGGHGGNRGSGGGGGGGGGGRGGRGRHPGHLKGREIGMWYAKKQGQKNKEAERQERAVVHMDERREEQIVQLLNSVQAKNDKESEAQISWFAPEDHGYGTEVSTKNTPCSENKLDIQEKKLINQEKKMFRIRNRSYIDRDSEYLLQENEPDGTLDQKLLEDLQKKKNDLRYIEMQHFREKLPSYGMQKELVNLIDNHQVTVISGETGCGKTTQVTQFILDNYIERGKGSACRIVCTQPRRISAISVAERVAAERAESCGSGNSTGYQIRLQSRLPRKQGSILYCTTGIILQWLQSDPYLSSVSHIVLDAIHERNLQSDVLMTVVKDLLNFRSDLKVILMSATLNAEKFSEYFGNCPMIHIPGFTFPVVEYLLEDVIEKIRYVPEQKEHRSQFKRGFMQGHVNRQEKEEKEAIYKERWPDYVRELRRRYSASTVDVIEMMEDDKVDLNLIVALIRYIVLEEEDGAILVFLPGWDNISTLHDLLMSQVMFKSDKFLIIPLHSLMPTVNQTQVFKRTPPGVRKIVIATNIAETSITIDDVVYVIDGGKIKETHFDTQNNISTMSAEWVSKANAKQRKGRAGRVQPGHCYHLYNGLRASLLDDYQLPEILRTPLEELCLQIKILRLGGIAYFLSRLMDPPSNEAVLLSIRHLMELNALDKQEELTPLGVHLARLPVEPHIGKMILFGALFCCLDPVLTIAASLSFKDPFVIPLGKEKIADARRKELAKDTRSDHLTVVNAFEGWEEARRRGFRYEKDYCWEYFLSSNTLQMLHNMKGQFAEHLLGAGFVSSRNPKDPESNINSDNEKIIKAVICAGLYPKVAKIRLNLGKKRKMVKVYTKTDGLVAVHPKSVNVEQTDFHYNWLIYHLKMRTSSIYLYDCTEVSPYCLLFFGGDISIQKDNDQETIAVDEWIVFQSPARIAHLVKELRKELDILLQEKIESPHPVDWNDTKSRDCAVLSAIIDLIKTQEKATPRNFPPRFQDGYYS

[2] = biological target: T2, G4R1/RHAU (G4 Resolvase 1) (human, UniProt Q9H2U1 1-1008); experiment: EMSA
T2 sequence: T1 sequence with A335E

[3] = biological target: T2, G4R1/RHAU (G4 Resolvase 1); experiment: EMSA; remark: listed apart in the source
[4] = biological target: T2, G4R1/RHAU (G4 Resolvase 1); experiment: competition
[5] = biological target: T2, G4R1/RHAU (G4 Resolvase 1); experiment: EMSA; remark: listed apart in the source
[6] = biological target: T2, G4R1/RHAU (G4 Resolvase 1); experiment: competition; remark: listed apart in the source
[7] = biological target: T2, G4R1/RHAU (G4 Resolvase 1); experiment: EMSA; remark: listed apart in the source

Binder: AAAAAAAAAAGGGTGGGGGGGCGGGGGAGGCCGGGGAAAAAAAAAA (structured_DNA) [Poly A Zic1 DNA 47-mer, unimolecular G4]
- binding result [1]: binds
- Kd [2]: 5.7 ± 0.2 pM
- Kd [3]: 5 pM

Binder: TTTTTTTTTTGGGTGGGGGGGGCGGGGGAGGCCGGGGTTTTTTTTTT (structured_DNA) [Poly T Zic1 DNA 47-mer, unimolecular G4]
- Kd [2]: 2.4 ± 0.2 pM

Binder: AAAGTGATGGTGGTGGGGGAAGGATTTTCGAAC (structured_DNA) [Z33 tetramolecular G4-DNA]
- IC50 [4]: 1 competitor:substrate molar ratio

Binder: AAAAAAAAAAGGGTGGGGGGGCGGGGGAGGCCGGGGAAAAAAAAAA (ssDNA, guanine N7 methylation (DMS)) [Poly A Zic1 47-mer, dimethyl sulfate treated]
- binding result [5]: no binding

B1: c-Myc DNA 51-mer, unimolecular G4 (structured_DNA)
DNA: GGCCGCTTATGGGGAGGGTGGGGAGGGTGGGGAAGGTGGGGAGGAGACTCA
- Kd [2]: 4.4 ± 0.6 pM
- IC50 [6]: 0.06 competitor:substrate molar ratio

Binder: AGAAGAGAGAGAGTGAGAGAGACGAGAGAGGCCGAGAAGAGAGAGAG (ssDNA) [Scrambled Zic1 DNA 47-mer]
- Kd [7]: > 300 pM
